Publication PMC3439888 (Nucleic Acids Research, 2012)

Molecular target: the molecule itself
Assay: SEC

B1: Lac repressor (natural protein)
chain: MKPVTLYDVAEYAGVSYQTVSRVVNQASHVSAKTREKVEAAMAELNYIPNRVAQQLAGKQSLLIGVATSSLALHAPSQIVAAIKSRADQLGASVVVSMVERSGVEACKAAVHNLLAQRVSGLIINYPLDDQDAIAVEAACTNVPALFLDVSDQTPINSIIFSHEDGTRLGVEHLVALGHQQIALLAGPLSSVSARLRLAGWHKYLTRNQIQPIAEREGDWSAMSGFQQTMQMLNEGIVPTAMLVANDQMALGAMRAITESGLRVGADISVVGYDDTEDSSCYIPPLTTIKQDFRLLGQTSVDRLLQLSQGQAVKGNQLLPVSLVKRKTTLAPNTQTASPRALADSLMQLARQVSRLESGQ
  stoichiometry N: 4
